Source: patent US20240075137A1 (COMPUGEN, published 2024)
Like-named read-outs stand apart in the source and are kept apart here.

Experiments:
[1] = molecular target: T1, cyno TIGIT on cells (cynomolgus macaque); experiment: flow cytometry of fab; MFI on cyno TIGIT over-expressing Expi293 / MFI on parental Expi293
T1 construct: whole, on cells; also called Expi293 cyno TIGIT over-expressing cells

[2] = molecular target: T2, human TIGIT on cells (human, UniProt Q495A1 22-141); experiment: flow cytometry of fab; MFI on human TIGIT over-expressing Expi293 / MFI on parental Expi293
T2 construct: also called Expi293 human TIGIT over-expressing cells
T2 sequence: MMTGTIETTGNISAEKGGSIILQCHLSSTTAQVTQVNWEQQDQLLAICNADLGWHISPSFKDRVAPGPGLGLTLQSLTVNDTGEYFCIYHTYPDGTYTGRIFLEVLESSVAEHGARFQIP

[3] = molecular target: T3, human TIGIT ECD with C-terminal polyhistidine tag (human, UniProt Q495A1 22-141); experiment: SPR (ProteOn), Human TIGIT-His
T3 construct: in-house or Sino Biological; also called hTIGIT-HIS; human TIGIT-HIS
T3 sequence: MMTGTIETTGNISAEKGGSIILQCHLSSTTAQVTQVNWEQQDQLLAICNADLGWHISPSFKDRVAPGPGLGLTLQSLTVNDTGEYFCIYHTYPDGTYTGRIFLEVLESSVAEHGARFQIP

[4] = molecular target: T4, Mouse TIGIT-His (mouse, UniProt P86176); experiment: SPR (ProteOn), Mouse TIGIT-His
T4 construct: also called mouse TIGIT monomer (prepared in-house)
T4 sequence (soluble monomer with His tag, looked up): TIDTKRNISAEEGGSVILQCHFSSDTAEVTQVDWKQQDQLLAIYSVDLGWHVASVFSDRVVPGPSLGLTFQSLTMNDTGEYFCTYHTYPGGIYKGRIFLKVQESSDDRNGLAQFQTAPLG

[5] = molecular target: T1, cyno TIGIT on cells; experiment: FACS titration of AF647-labelled mAb on cyno effector memory CD8+ T cells, Cyno Donor 1; isotype gMFI subtracted
[6] = molecular target: T1, cyno TIGIT on cells; experiment: FACS titration of AF647-labelled mAb on cyno effector memory CD8+ T cells, Cyno Donor 3; isotype gMFI subtracted
[7] = molecular target: T5, Cyno TIGIT-His; experiment: SPR (ProteOn), Cyno TIGIT-His
T5 construct: also called cyno TIGIT monomer (prepared in-house); C-terminal HIS-tagged cyno TIGIT ECD recombinant protein

[8] = molecular target: T6, human PVRIG on cells (human, UniProt Q6DKI7 1-326); experiment: FACS, Jurkat cells, relative to control, 3.3ug/ml
T6 construct: whole, on cells; over-expressed on HEK cells or endogenous on Jurkat and CD8 T cells; also called hPVRIG; HEK hPVRIG cells
T6 sequence (looked up): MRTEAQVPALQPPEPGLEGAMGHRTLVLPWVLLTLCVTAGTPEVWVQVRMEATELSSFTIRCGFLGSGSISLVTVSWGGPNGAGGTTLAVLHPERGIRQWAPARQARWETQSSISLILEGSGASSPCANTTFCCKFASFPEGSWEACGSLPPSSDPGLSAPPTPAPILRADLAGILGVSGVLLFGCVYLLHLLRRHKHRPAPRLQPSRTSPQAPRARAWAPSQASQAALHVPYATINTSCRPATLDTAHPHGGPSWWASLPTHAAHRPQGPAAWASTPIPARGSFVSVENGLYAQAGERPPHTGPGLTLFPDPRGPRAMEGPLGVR

[9] = molecular target: T6, human PVRIG on cells; experiment: FACS, HEK hPVRIG cells (HEK OE)
[10] = molecular target: T7, PVRIG (FACS-based competition assay of FIGS. 7 and 15) (Homo sapiens, UniProt Q6DKI7); experiment: FACS-based competition assay of PVRIG blocking; format and competitor not given
T7 construct: made because the format of the assay is only described in U.S. Ser. No. 15/048,967; also called human PVRIG
T7 sequence (receptor, looked up): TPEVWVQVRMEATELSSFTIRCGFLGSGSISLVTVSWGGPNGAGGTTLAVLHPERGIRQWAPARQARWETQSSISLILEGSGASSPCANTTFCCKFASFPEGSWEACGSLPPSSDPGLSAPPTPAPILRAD

[11] = molecular target: T8, cynomolgus PVRIG on cells (cynomolgus, UniProt A0A2K5WVV8 41-322); experiment: FACS, cyno PBMC, CD8+ T cells, 10ug/ml
T8 construct: whole, on cells; also called cPVRIG; expi cPVRIG cells
T8 sequence: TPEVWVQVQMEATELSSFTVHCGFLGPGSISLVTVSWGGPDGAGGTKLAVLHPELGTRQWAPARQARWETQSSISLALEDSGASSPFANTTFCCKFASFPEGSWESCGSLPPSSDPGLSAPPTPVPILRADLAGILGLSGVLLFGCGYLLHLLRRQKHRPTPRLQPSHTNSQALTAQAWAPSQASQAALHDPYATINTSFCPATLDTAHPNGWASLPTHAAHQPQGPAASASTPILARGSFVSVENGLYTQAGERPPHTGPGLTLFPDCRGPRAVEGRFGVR

[12] = molecular target: T8, cynomolgus PVRIG on cells; experiment: FACS, cyno PBMC, NK cells, 10ug/ml
[13] = molecular target: T8, cynomolgus PVRIG on cells; experiment: FACS, expi cPVRIG over expi parental cells, 3.3ug/ml
[14] = molecular target: T6, human PVRIG on cells; experiment: FACS, human PBMC, CD8+ T cells, 10ug/ml
[15] = molecular target: T6, human PVRIG on cells; experiment: FACS, human PBMC, CD56 int. NK cells, 10ug/ml
[16] = molecular target: T7, PVRIG (FACS-based competition assay of …); experiment: FACS-based competition assay of PVRIG blocking; format and competitor not given; remark: listed apart in the source
[17] = molecular target: T8, cynomolgus PVRIG on cells; experiment: FACS, cyno PBMC, NK cells, 10ug/ml; remark: listed apart in the source
[18] = molecular target: T6, human PVRIG on cells; experiment: FACS, HEK hPVRIG over HEK parental cells, 3.3ug/ml
[19] = molecular target: T8, cynomolgus PVRIG on cells; experiment: FACS, cyno PBMC, CD8+ T cells, 10ug/ml; remark: listed apart in the source
[20] = molecular target: T8, cynomolgus PVRIG on cells; experiment: FACS, expi cPVRIG over expi parental cells, 3.3ug/ml; remark: listed apart in the source
[21] = molecular target: T6, human PVRIG on cells; experiment: FACS, human PBMC, CD56 int. NK cells, 10ug/ml; remark: listed apart in the source
[22] = molecular target: T6, human PVRIG on cells; experiment: FACS, human PBMC, CD8+ T cells, 10ug/ml; remark: listed apart in the source

T5 sequence (ECD with C-terminal His tag, as listed by the source): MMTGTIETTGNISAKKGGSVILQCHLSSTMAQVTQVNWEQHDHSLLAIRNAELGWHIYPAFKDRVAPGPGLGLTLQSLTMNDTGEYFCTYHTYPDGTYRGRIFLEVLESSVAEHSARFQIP

B1: CPA.9.103 (fab) (Fab, V domains shown)
VH: EVQLVETGGGLIQPGGSLRLSCAASGFTVSSNYMSWVRQAPGKGLEWVSVIYSGGSTYYADSVKGRFTISRDNSKNTLYLQMNSLRAEDTAVYYCARGARPNGQYPYWGQGTLVTVSS
VL: DIQLTQSPSFLSASVGDRVTITCRASHGIKSLFSWYQQKPGKAPKLLIYAASTLQTGVPSRFSGSASGTEFTLTISSLQPEDFATYYCLQLDSFPTWTFGQGTKVEIK
notes: variant of CPA.9.059 screened as fab
- MFIr (OE/Par) cTIGIT [1]: 30
- MFIr (OE/Par) hTIGIT [2]: 95

B2: CPA.9.103 (antibody, human IgG4 S228P, kappa, V domains shown)
VH: EVQLVETGGGLIQPGGSLRLSCAASGFTVSSNYMSWVRQAPGKGLEWVSVIYSGGSTYYADSVKGRFTISRDNSKNTLYLQMNSLRAEDTAVYYCARGARPNGQYPYWGQGTLVTVSS
VL: DIQLTQSPSFLSASVGDRVTITCRASHGIKSLFSWYQQKPGKAPKLLIYAASTLQTGVPSRFSGSASGTEFTLTISSLQPEDFATYYCLQLDSFPTWTFGQGTKVEIKR
modifications: AF647 dye on the antibody in the FACS assay of FIG. 73
notes: fab form is m92; also called CPA.9.103.H4(S241P)
- Kd [3]: 0.0064 nM
- Kd [4]: 25 nM
- Kd [5]: 31 nM
- Kd [6]: 25 nM
- Kd [7]: 0.337 nM

B3: CPA.9.101 (fab) (Fab, V domains shown)
VH: EVQLVETGGGLIQPGGSLRLSCAASGFTVSSNYMSWVRQAPGKGLEWVSVIYSGGSTYYADSVKGRFTISRDNSKNTLYLQMNSLRAEDTAVYYCARGAPLFGQYPYWGQGTLVTVSS
VL: DIQMTQSPSSLSASVGDRVTITCRASHAIASLFSWYQQKPGKAPKLLIYAASTLQTGVPSRFSGSASGTEFTLTISSLQPEDFATYYCLQLDSFPTWTFGQGTKVEIK
notes: as for B1
- MFIr (OE/Par) cTIGIT [1]: 22
- MFIr (OE/Par) hTIGIT [2]: 130

B4: CHA.7.548 (antibody, V domains shown)
VH: EVQLQQSGPELVKPGASVKISCKASGYTFTDYSMNWVKQSHGKSLEWIGDITPNNGSPNYNQKFKDKATLTVDKSSSTVYMELRSLTSEDSAVYYCASLFFDYWGHGTTLTVSS
VL: DIVMTQSPSSLSVSAGEKVTMSCKSSQSLLNSGNQKNYLAWYQQKPGQPPKLLIYGASTRDSGVPDRFTGSGSGTDFTLTITSVQAEDLAVYYCQNDHTYPYTFGGGTKLEIK
- gMFIr Jurkat [8]: 7.37
- EC50 [9]: 0.27 nM
- IC50 [10]: 19 nM
- gMFIr Cyno CD8+ T cells [11]: 1.09
- gMFIr Cyno NK cells [12]: 1.18
- gMFIr Expi cyno OE/par [13]: 4.25
- gMFIr Human CD8+ T cells [14]: 3.35
- gMFIr Human CD56 int. NK [15]: 3.15
- IC50 [16]: 19 nM
- gMFIr Cyno NK cells [17]: 1.18
- gMFIr HEK OE/par [18]: 45.3
- gMFIr Cyno CD8+ T cells [19]: 1.09
- gMFIr Expi cyno OE/par [20]: 4.25
- gMFIr Human CD56 int. NK [21]: 3.15
- gMFIr Human CD8+ T cells [22]: 3.35

B5: CHA.9.547.1 (antibody, human IgG4 S228P, kappa, V domains shown)
VH: EVQLVESGGGLVQPGGSLRLSCAASGFTFSSYIMSWVRQAPGKGLEWVSTISGGGTNTYYADSVKGRFTISRDNSKNTLYLQMNSLRAEDTAVYYCAKWLLSYYAMDYWGQGTLVTVSS
VL: DIQMTQSPSSLSASVGDRVTITCRASQNINVWLTWYQQKPGKAPKLLIYKASNLHTGVPSRFSGSGSGTDFTLTISSLQPEDFATYYCQQGQSYPYTFGQGTKLEIKR
modifications: AF647 dye on the antibody in the FACS assay of FIG. 73
notes: also called CHA.9.547.1.H4(S241P)
- binding result [4]: no binding (tested: not printed)
- Kd [5]: 25 nM
- Kd [6]: 19 nM
- Kd [7]: 1.13 nM

B6: CHA.7.549 (antibody, V domains shown)
VH: QVQLQQPGTELVKPGASVKLSCKASGFTFTTHWMHWVRQRPGQGLEWIGNIYPSNGGSNYNEKFKTKATLTVDRSSSTAYMHLSSLTSEDSAVYYCARRVNWDGYYFDYWGQGTTLTVSS
VL: DIVMTQSQKFMSTSVGDRVSVTCKASQNVGTNVAWYQQKPGQSPKLLIYSASYRYSGVPDRFTGSGSGTDFTLTISNVQSEDLADYFCQQYNSYPLTFGGGTKLEIK
- gMFIr Jurkat [8]: 2.23
- EC50 [9]: 2.6 nM
- IC50 [10]: 36.1 nM
- gMFIr Expi cyno OE/par [13]: 1
- gMFIr Human CD8+ T cells [14]: 1.42
- gMFIr Human CD56 int. NK [15]: 3.05
- IC50 [16]: 36.1 nM
- gMFIr HEK OE/par [18]: 29.7
- gMFIr Expi cyno OE/par [20]: 1
- gMFIr Human CD56 int. NK [21]: 3.05
- gMFIr Human CD8+ T cells [22]: 1.42

B7: CHA.7.550 (antibody, V domains shown)
VH: QVQLQESGTELVKPGASVKLSCKASGYTFTSYWIHWVKQRPGQGLEWIGNINPSNGGTNYNEKFKSKAALTVDKSSSTAYMQLSSLTSEDSAVYYCARRGLPYFFDYWGQGTTLTVSS
VL: DIVMTQSQKFMSTSVGDRVSVTCKGSQNVGYNVAWYQQKPGQSPKALVYSASDRHSGVPDRFAGSGSGTDFTLTISNVQSEDLAEYFCQQYNSYPLTFGAGTKLELK
- gMFIr Jurkat [8]: 2.1
- EC50 [9]: 1.34 nM
- IC50 [10]: 58.3 nM
- gMFIr Expi cyno OE/par [13]: 0.9
- gMFIr Human CD8+ T cells [14]: 1.29
- gMFIr Human CD56 int. NK [15]: 1.6
- IC50 [16]: 58.3 nM
- gMFIr HEK OE/par [18]: 27.7
- gMFIr Expi cyno OE/par [20]: 0.9
- gMFIr Human CD56 int. NK [21]: 1.6
- gMFIr Human CD8+ T cells [22]: 1.29
